From doi:10.1101/2021.04.08.438961 (bioRxiv, 2021)
“And” between values parts separate entries of the source, which are not always exact repeats. Equal values may be shown once.

B1: MinD (natural protein)
chain: MARIIVVTSGKGGVGKTTSSAAIATGLAQKGKKTVVIDFDIGLRNLDLIMGCERRVVYDFVNVIQGDATLNQALIKDKRTENLYILPASQTRDKDALTREGVAKVLDDLKAMDFEFIVCDSPAGIETGALMALYFADEAIITTNPEVSSVRDSDRILGILASKSRRAENGEEPIKEHLLLTRYNPGRVSRGDMLSMEDVLEILRIKLVGVIPEDQSVLRASNQGEPVILDINADAGKAYADTVERLLGEERPFRFIEEEKKGFLKRLFGG

Key:
[1] = molecular target: the molecule itself; assay: mass-sensitive particle tracking
MinD = molecular target: B1; assay: mass-sensitive particle tracking

Binder	stoichiometry N [1]	binding result (MinD)
B1	2 and > 2 and 3 and 4	–
MinD D40A (natural protein) MARIIVVTSGKGGVGKTTSSAAIATGLAQKGKKTVVIDFAIGLRNLDLIMGCERRVVYDFVNVIQGDATLNQALIKDKRTENLYILPASQTRDKDALTREGVAKVLDDLKAMDFEFIVCDSPAGIETGALMALYFADEAIITTNPEVSSVRDSDRILGILASKSRRAENGEEPIKEHLLLTRYNPGRVSRGDMLSMEDVLEILRIKLVGVIPEDQSVLRASNQGEPVILDINADAGKAYADTVERLLGEERPFRFIEEEKKGFLKRLFGG	2 and 4	–
MinE (natural protein) MALLDFFLSRKKNTANIAKERLQIIVAERRRSDAEPHYLPQLRKDILEVICKYVQIDPEMVTVQLEQKDGDISILELNVTLPEAEELK	–	binds
